Measurements as given in article PMC10003557 (International Journal of Molecular Sciences, 2023).
Where a chain is given by its changes, count along the chain named.

B1: P5E1 (hIgG1) (antibody, V domains shown)
VH: EVQLLESGGGLVQPGGSLRLSCAASGFTFSDSAMSWVRQAPGKGLEWVSGIYGRGGYTYYADSVKGRFTISRDNSKNTLYLQMNSLRAEDTAVYYCARGGSWFDPWGQGTLVTVSS
VL: not shown
B2: P5E1-A6 (hIgG1) (antibody, V domains shown)
VH: EVQLLESGGGLVQPGGSLRLSCAASGFTFTSTAMSWVRQAPGKGLEWVSGIYGRGSTRYADSVKGRFTISRDNSKNTLYLQMNSLRAEDTAVYYCARGGSWFDPWGQGTLVTVSS
VL: not shown
B3: P5A10-G2 (hIgG1) (antibody, V domains shown)
VH: EVQLLESGGGLVQPGGSLRLSCAASGFTSSNTWMSWVRQAPGKGLEWVSGIDGRGGSTYYADSVKGRFTISRDNSKNTLYLQMNSLRAEDTAVYYCATDSSTQPWYFDLWGRGTLVTVSS
VL: EIVLTQSPATLSLSPGERATLSCRASQSVSSNLAWYQQKPGQAPRLLIYDASNRATGIPARFSGSGSGTDFTLTISSLEPEDFAVYYCQQREREPITFGQGTKVEIK
B4: P5A10-G4 (hIgG1) (antibody, V domains shown)
VH: EVQLLESGGGLVQPGGSLRLSCAASGFTFSSYWMSWVRQAPGKGLEWVSGISGSGRRAFGGSTYYADSVKGRFTISRDNSKNTLYLQMNSLRAEDTAVYYCATDSSTQPWYFDLWGRGTLVTVSS
VL: B3 VL
B5: P5A10 (hIgG1) (antibody, V domains shown)
VH: B3 VH with S29F, N31S, T32S, W33A, D52Y
VL: B3 VL

Legend:
[1] = target: T1, SARS-CoV-2 receptor-binding domain (RBD) wild-type (WT) (SARS-CoV-2 (Wuhan, WT), UniProt P0DTC2); assay: bead-based flow cytometry (iQue3) blocking assay; details: both partners purified
T1 construct: also called RBD WT; RBD Wuhan (WT)

[2] = target: T1, SARS-CoV-2 receptor-binding domain …; assay: ELISA; binding ELISA of purified hIgG1 on RBD; EC50; details: both partners purified
[3] = target: T1, SARS-CoV-2 receptor-binding domain …; assay: SPR; Biacore; antibodies captured on the chip (Protein A CM5 chip by the methods, anti-IgG antibody by the results), RBD WT flown over; 1:1 Langmuir fit; details: both partners purified
[4] = target: T2, biotinylated RBD protein (SPD-C82E9, Acro Biosystems) (SARS-CoV-2 (WT), UniProt P0DTC2); assay: bead-based flow cytometry (iQue3, Qbeads) competition assay; details: both partners purified
T2 construct: also called Biotinylated RBD WT; RBD-Qbeads

[5] = target: T1, SARS-CoV-2 receptor-binding domain …; assay: SPR; Biacore; antibodies captured on the chip (Protein A CM5 chip by the methods, anti-IgG antibody by the results), RBD WT flown over; 1:1 Langmuir fit; details: both partners purified; remark: listed apart in the source
[6] = target: T1, SARS-CoV-2 receptor-binding domain …; assay: cell-based or functional assay
[7] = target: T1, SARS-CoV-2 receptor-binding domain …; assay: bead-based flow cytometry (iQue3) blocking assay; details: both partners purified; remark: listed apart in the source
[8] = target: T2, biotinylated RBD protein (SPD-C82E9, …); assay: bead-based flow cytometry (iQue3, Qbeads) competition assay; details: both partners purified; remark: listed apart in the source

Binder	IC50 [1] [nM]	EC50 [2] [nM]	Kd [3] [nM]	koff [3] [s⁻¹]	kon [3] [M⁻¹ s⁻¹]	IC50 [4] [nM]	Kd [5] [nM]	koff [5] [s⁻¹]	kon [5] [M⁻¹ s⁻¹]	PRNT: authentic SARS-CoV-2 on Vero E6 cells, NC50; pair blocked: RBD with hACE-2 [6] [nM]	IC50 [7] [nM]	IC50 [8] [nM]
B1	2.63	0.97	27.1	0.00433	160000	2.15						
B2							0.89	0.000527	588000	43.9	0.61	0.06
B3							0.39	0.000578	1.49e+06	61.1	1.18	1.23
B4							0.14	0.000148	1.09e+06	10.4	0.78	0.12
B5		16.9	28.8	0.00367	127000	2.34						
